The Immune Epitope Database (IEDB)

Experiments:
Experiment in all cases: IEDB peptide-MHC binding, purified MHC/competitive/fluorescence; filed as Kd, often an IC50 or EC50 that approximates it; ≥ and ≤ were set here for values at or beyond the usual limits of such assays
Conditions in all cases: source organism: Plasmodium falciparum
HLA-A*02:01 = target: HLA-A*02:01
HLA-A*24:02 = target: HLA-A*24:02
HLA-A*01:01 = target: HLA-A*01:01
HLA-B*44:02 = target: HLA-B*44:02
HLA-A*03:01 = target: HLA-A*03:01
HLA-B*07:02 = target: HLA-B*07:02

CKMEKCSSV
Kd (HLA-A*02:01): ≥ 100 µM

CKMEKCSSVF
Kd (HLA-A*24:02): ≥ 250 µM

CSSVFNVVN
Kd (HLA-A*01:01): ≥ 82.5 µM

DELDYANDI
Kd (HLA-B*44:02): ≥ 277 µM

DENANANNA
Kd (HLA-B*44:02): ≥ 896 µM

ELDYENDIEK
Kd (HLA-A*01:01): ≥ 100 µM

EWSPCSVTCG
Kd (HLA-A*24:02): ≥ 685 µM

HIKEYLNKI
Kd (HLA-A*02:01): ≥ 259 µM

HITEYLKKI
Kd (HLA-A*02:01): ≥ 148 µM

IEKKICKMEK
Kd (HLA-A*03:01): ≥ 100 µM

IEQYLKKIQY
Kd (HLA-A*01:01): ≥ 100 µM | Kd (HLA-B*44:02): ≥ 157 µM

IQNSLSTEW
Kd (HLA-A*24:02): ≥ 21.3 µM | Kd (HLA-B*44:02): ≥ 136 µM

KDELDYENDI
Kd (HLA-B*44:02): ≥ 100 µM

KEYLNKIQNS
Kd (HLA-B*44:02): ≥ 100 µM

KMEKCSSVF
Kd (HLA-A*01:01): ≥ 100 µM | Kd (HLA-B*07:02): ≥ 100 µM

KPGSADKPKD
Kd (HLA-B*07:02): ≥ 100 µM

KPGSANKPKD
Kd (HLA-B*07:02): ≥ 100 µM

LDYANDIEK
Kd (HLA-A*03:01): ≥ 100 µM

LIMVLSFLF
Kd (HLA-A*24:02): 19.3 µM

LSTEWSPCS
Kd (HLA-A*01:01): ≥ 100 µM

MEKCSSVFN
Kd (HLA-B*44:02): ≥ 143 µM

MPNDPNRNV
Kd (HLA-B*07:02): ≥ 511 µM | Kd (HLA-B*44:02): ≥ 100 µM

NEEPSDKHI
Kd (HLA-B*44:02): ≥ 100 µM

NEEPSDKHIK
Kd (HLA-A*01:01): ≥ 100 µM | Kd (HLA-B*44:02): ≥ 100 µM

NEEPSDQHI
Kd (HLA-B*44:02): ≥ 100 µM

NPDPNANPNV
Kd (HLA-B*07:02): ≥ 100 µM

NPNANPNAN
Kd (HLA-B*07:02): ≥ 100 µM

NPNANPNANP
Kd (HLA-B*07:02): ≥ 100 µM

NPNVDPNANP
Kd (HLA-B*07:02): ≥ 100 µM

NSSIGLIMV
Kd (HLA-A*01:01): ≥ 215 µM

NVDENANAN
Kd (HLA-A*01:01): ≥ 100 µM

NVDENANANN
Kd (HLA-A*01:01): ≥ 667 µM

NVDPNANPNV
Kd (HLA-A*01:01): ≥ 100 µM

PSDKHIEQY
Kd (HLA-A*01:01): 2 µM

PSDKHIKEY
Kd (HLA-A*01:01): ≥ 24.8 µM

PSDKHITEY
Kd (HLA-A*01:01): 2.67 µM

QLDYENDIEK
Kd (HLA-A*01:01): ≥ 726 µM | Kd (HLA-A*03:01): ≥ 100 µM

QVRIKPGSA
Kd (HLA-B*07:02): ≥ 134 µM

RIKPGSADK
Kd (HLA-A*03:01): 17.7 µM

RIKPGSANK
Kd (HLA-A*03:01): ≥ 21.3 µM

SADKPKDQLD
Kd (HLA-A*01:01): 8.97 µM

SPCSVTCGNG
Kd (HLA-B*07:02): ≥ 100 µM

STEWSPCSV
Kd (HLA-A*01:01): 3.18 µM

SVFNVVNSSI
Kd (HLA-A*02:01): ≥ 342 µM | Kd (HLA-A*03:01): ≥ 100 µM | Kd (HLA-B*07:02): ≥ 100 µM

SVTCGNGIQV
Kd (HLA-A*02:01): ≥ 489 µM | Kd (HLA-B*07:02): ≥ 100 µM

TEWSPCSVT
Kd (HLA-B*44:02): ≥ 100 µM

TEYLKKIQN
Kd (HLA-B*44:02): ≥ 100 µM

VTCGNGIQV
Kd (HLA-A*01:01): ≥ 100 µM | Kd (HLA-A*03:01): ≥ 100 µM

YLKIIQNSL
Kd (HLA-A*02:01): 4.88 µM

YLKKIQNSL
Kd (HLA-A*02:01): 2.18 µM | Kd (HLA-A*24:02): 11.2 µM | Kd (HLA-B*07:02): 9.2 µM

YLKKIQYSL
Kd (HLA-A*02:01): 2.58 µM
